The values below come from the supplement of paper PMC7877785.

This data set can be described thus: self-splicing fitness, log relative to wild type (ln ratio); higher = more splicing; Tetrahymena group I intron in knt gene, E. coli kanamycin selection, DiMSum; sequences stand for … in CUCUCU…GGAGGGAAAAGUUAUCAGGCAUGCACCUGGUAGCUAGUCUUUAAACCAAUAGAUUGCAUCGGUUUAAAAGGCAAGACCGUCAAAUUGCGGGAAAGGGGUCAACAGCCGUUCAGUACCAAGUCUCAGGGGAAACUUUGAGAUGGCCUUGCAAAGGGUAUGGUAAUAAGCUGACGGACAUGGUCCUAACCACGCAGCCAAGUCCUAAGUCAACAGAUCUUCUGUUGAUAUGGAUGCAGUUCACAGACUAAAUGUCGGUCGGGGAAGAUGUAUUCUUCUCAUAAGAUAUAGUCGGACCUCUCCUUAAUGGGAGCUAGCGGAUGAAGUGAUGCAACACUGGAGCCGCUGGGAACUAAUUUGUAUGCGAAAGUAUAUUGAUUAGUUUUGGAGUACUCGUGGUCG
In outline: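 A randomised library covering all eight P1ex-region intron nucleotides was built with the intron in the knt kanamycin-resistance gene on pET-22b(+) and held in E. coli BL21(DE3). Cells were grown overnight at 37°C or 30°C on LB agar, with or without 25 μg/mL kanamycin, plus 100 μg/mL carbenicillin, 50 μM IPTG and 0.2% rhamnose, and pooled colonies were amplicon-sequenced on an Illumina HiSeq 2500. DiMSum fitness is the error-weighted combination of wild-type-normalised replicate fold changes, kanamycin versus none.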

± gives the uncertainty stated by the source.

For UUCAAGCAAUAUUACGAUGG, the “self-splicing fitness (ln)” value runs as follows: (30 °C) -2.38 ± 0.19; (37 °C) -1.95 ± 0.17.
In the case of UGCGAGCAAUAUUACGCACU, the “self-splicing fitness (ln)” value (30 °C) is -1.68 ± 0.27 and the “self-splicing fitness (ln)” value (37 °C) is -1.66 ± 0.24.
With AAACAGCAAUAUUACGAUCG, the “self-splicing fitness (ln)” value was -2.18 ± 0.11 (30 °C) and -0.0291 ± 0.11 (37 °C).
On the same counts, the results for AAAAAGCAAUAUUACGUCAC are -4.29 ± 0.26 and -1.27 ± 0.16.
With AUAGAGCAAUAUUACGCAAC, the “self-splicing fitness (ln)” value (37 °C) is -1.78 ± 0.41.
As to CCCUAGCAAUAUUACGUGAG, the “self-splicing fitness (ln)” value is, setting by setting: (30 °C) -3.42 ± 0.22; (37 °C) -2.38 ± 0.23.
With ACUCAGCAAUAUUACGCCAA, the “self-splicing fitness (ln)” value is, setting by setting: (30 °C) -1.12 ± 0.17; (37 °C) -2.5 ± 0.21.
For UAUGAGCAAUAUUACGUCUA, the “self-splicing fitness (ln)” value runs as follows: (30 °C) -0.497 ± 0.1; (37 °C) -0.408 ± 0.13.
Regarding UUAAAGCAAUAUUACGCUUU, the “self-splicing fitness (ln)” value is, setting by setting: (30 °C) -4.36 ± 0.35; (37 °C) -1.94 ± 0.24.
As to UCCUAGCAAUAUUACGACAA, where the note is “37 °C”, the “self-splicing fitness (ln)” value was -2.04 ± 0.29.
The same measure, in the same setting: next, CGGCAGCAAUAUUACGGGAC: -2.85 ± 0.47.
In the case of UCCGAGCAAUAUUACGCGAG, the “self-splicing fitness (ln)” value (37 °C) is -1.2 ± 0.24.
For CCCUAGCAAUAUUACGUCGG, the “self-splicing fitness (ln)” value is -3.32 ± 0.22 (30 °C) and -2.57 ± 0.23 (37 °C).
On the same counts, the results for UGGGAGCAAUAUUACGGACU are -1.17 ± 0.36 and -2.35 ± 0.46.
As to CAGGAGCAAUAUUACGUGCU, the “self-splicing fitness (ln)” value (30 °C) was -2.91 ± 0.13 and the “self-splicing fitness (ln)” value (37 °C) is -2.23 ± 0.14.
On the same counts, the results for CCGUAGCAAUAUUACGAUAU are -2 ± 0.19 and -3.31 ± 0.43.
In the case of CCAAAGCAAUAUUACGGUUC, the “self-splicing fitness (ln)” value is, setting by setting: (30 °C) -2.91 ± 0.12; (37 °C) -2.34 ± 0.2.
As for UCGGAGCAAUAUUACGGACA, where the note is “37 °C”, the “self-splicing fitness (ln)” value is -1.38 ± 0.37.
Take CUCUAGCAAUAUUACGCUCC: the “self-splicing fitness (ln)” value (37 °C) is -1.03 ± 0.36.
For UUUAAGCAAUAUUACGUUAC, the “self-splicing fitness (ln)” value by setting is: (30 °C) -3.76 ± 0.3; (37 °C) -3.05 ± 0.26.
With CCUCAGCAAUAUUACGCAUG, the “self-splicing fitness (ln)” value reads like this: (30 °C) -1.83 ± 0.092; (37 °C) -0.467 ± 0.086.
On the same counts, the results for UGCUAGCAAUAUUACGACAC are -3.83 ± 0.22 and -2.11 ± 0.16.
For AAUAAGCAAUAUUACGCCCG, in that order: -1.39 ± 0.15 and -0.203 ± 0.18.
Take AUAAAGCAAUAUUACGAAUU: the “self-splicing fitness (ln)” value reads like this: (30 °C) -1.23 ± 0.064; (37 °C) -0.731 ± 0.089.
As for GCGCAGCAAUAUUACGCGUU, the “self-splicing fitness (ln)” value (30 °C) was -2.99 ± 0.14 and the “self-splicing fitness (ln)” value (37 °C) was -2.06 ± 0.15.
As to AGACAGCAAUAUUACGACGA, the “self-splicing fitness (ln)” value was -1.29 ± 0.13 (30 °C) and -0.547 ± 0.12 (37 °C).
In the case of UCAUAGCAAUAUUACGGAGC, the “self-splicing fitness (ln)” value (30 °C) was -2.3 ± 0.29 and the “self-splicing fitness (ln)” value (37 °C) was -3.14 ± 0.4.
On to UAAAAGCAAUAUUACGGGGA, for which the “self-splicing fitness (ln)” value is, setting by setting: (30 °C) -1.73 ± 0.12; (37 °C) -0.962 ± 0.12.
On the same counts, the results for CAUGAGCAAUAUUACGAUCG are -0.0708 ± 0.12 and -0.399 ± 0.14.
For UGACAGCAAUAUUACGCGUU, in that order: -3.69 ± 0.16 and -2.75 ± 0.17.
As to AGAAAGCAAUAUUACGUAUG, the “self-splicing fitness (ln)” value is -2.58 ± 0.12 (30 °C) and -3.05 ± 0.19 (37 °C).
Turning to GUCCAGCAAUAUUACGUGAG, the “self-splicing fitness (ln)” value by setting is: (30 °C) 0.151 ± 0.044; (37 °C) 0.375 ± 0.065.
On the same counts, the results for UAGAAGCAAUAUUACGACAA are -0.512 ± 0.1 and -0.213 ± 0.11.
For the sequence GCAUAGCAAUAUUACGGGAC, the “self-splicing fitness (ln)” value (30 °C) is -2.49 ± 0.17 and the “self-splicing fitness (ln)” value (37 °C) is -0.217 ± 0.14.
On the same counts, the results for UAGUAGCAAUAUUACGAAUU are -4.36 ± 0.36 and -2.27 ± 0.27.
With UUGGAGCAAUAUUACGCGGA, the “self-splicing fitness (ln)” value (37 °C) was -1.08 ± 0.36.
Take ACCGAGCAAUAUUACGGGUA: the “self-splicing fitness (ln)” value was -2.6 ± 0.16 (30 °C) and -0.706 ± 0.13 (37 °C).
For CACCAGCAAUAUUACGGAGC, in that order: -2.79 ± 0.13 and -1.58 ± 0.13.
For UGUUAGCAAUAUUACGAUUC, in that order: -2.39 ± 0.18 and -0.83 ± 0.18.
For GAGCAGCAAUAUUACGUUGU, in that order: -3.37 ± 0.14 and -2.16 ± 0.15.
On to GGAAAGCAAUAUUACGCAAG, for which the “self-splicing fitness (ln)” value is -1.26 ± 0.14 (30 °C) and -1.13 ± 0.18 (37 °C).
For ACGAAGCAAUAUUACGAGAC, where the note is “30 °C”, the “self-splicing fitness (ln)” value was -2.39 ± 0.38.
As for UGAGAGCAAUAUUACGCUGA, the “self-splicing fitness (ln)” value by setting is: (30 °C) -2.42 ± 0.32; (37 °C) -1.53 ± 0.28.
CUAAAGCAAUAUUACGUUCU: the “self-splicing fitness (ln)” value is, setting by setting: (30 °C) -4.08 ± 0.24; (37 °C) -3.07 ± 0.26.
On the same counts, the results for AAUAAGCAAUAUUACGUCGC are -2.48 ± 0.16 and -1.21 ± 0.14.
On the same counts, the results for UCUCAGCAAUAUUACGCAUA are -2.22 ± 0.13 and -0.634 ± 0.12.
Regarding UCCGAGCAAUAUUACGCCUU, under “30 °C”, the “self-splicing fitness (ln)” value was -2.35 ± 0.35.
On to GAGUAGCAAUAUUACGUACU, for which the “self-splicing fitness (ln)” value was -2.67 ± 0.15 (30 °C) and -1.67 ± 0.16 (37 °C).
For UGUAAGCAAUAUUACGCGCG, in that order: -0.498 ± 0.11 and -0.329 ± 0.15.
For the sequence GUUAAGCAAUAUUACGCCAC, the “self-splicing fitness (ln)” value is -3.63 ± 0.4 (30 °C) and -3.27 ± 0.47 (37 °C).
In the case of CGUCAGCAAUAUUACGACCA, the “self-splicing fitness (ln)” value is, setting by setting: (30 °C) -0.734 ± 0.11; (37 °C) -0.297 ± 0.13.
As to GCAGAGCAAUAUUACGGCCU, where the note is “37 °C”, the “self-splicing fitness (ln)” value was -1.69 ± 0.28.
Consider CAUCAGCAAUAUUACGAUUC, for which the “self-splicing fitness (ln)” value runs as follows: (30 °C) -1.62 ± 0.071; (37 °C) -0.269 ± 0.073.
With ACCGAGCAAUAUUACGGCUC, the “self-splicing fitness (ln)” value was -4.07 ± 0.39 (30 °C) and -1.54 ± 0.35 (37 °C).
For CCCCAGCAAUAUUACGUCUC, in that order: -3.78 ± 0.16 and -3.61 ± 0.19.
For ACGCAGCAAUAUUACGCGUC, in that order: -4.42 ± 0.17 and -2.18 ± 0.14.
For CGAAAGCAAUAUUACGAACU, the “self-splicing fitness (ln)” value runs as follows: (30 °C) -1.25 ± 0.091; (37 °C) 0.0371 ± 0.14.
On the same counts, the results for GCACAGCAAUAUUACGCGAG are -2.41 ± 0.092 and -0.669 ± 0.084.
For AUCGAGCAAUAUUACGGCAG, the “self-splicing fitness (ln)” value (37 °C) was -2.63 ± 0.46.
For UGUGAGCAAUAUUACGUCGC, the “self-splicing fitness (ln)” value (30 °C) was -1.15 ± 0.21.
Regarding UCUAAGCAAUAUUACGCAAU, the “self-splicing fitness (ln)” value (37 °C) was -3.12 ± 0.43.
ACGAAGCAAUAUUACGCUGU: the “self-splicing fitness (ln)” value was -2.16 ± 0.13 (30 °C) and -0.576 ± 0.11 (37 °C).
Regarding UCCCAGCAAUAUUACGAUCA, the “self-splicing fitness (ln)” value (30 °C) was -1.48 ± 0.14 and the “self-splicing fitness (ln)” value (37 °C) was -0.722 ± 0.14.
On the same counts, the results for UCCAAGCAAUAUUACGGGGU are -2.76 ± 0.11 and -1.96 ± 0.13.
